This assay concerns the target human CD84 on cells (primary CLL cells, Ramos cells, Daudi cells) (human), Q9UIB8. Briefly: cell-based or functional assay.

human CD84 on cells (primary CLL cells, Ramos cells, Daudi cells) (human), Q9UIB8, sequence (Q9UIB8 22-345): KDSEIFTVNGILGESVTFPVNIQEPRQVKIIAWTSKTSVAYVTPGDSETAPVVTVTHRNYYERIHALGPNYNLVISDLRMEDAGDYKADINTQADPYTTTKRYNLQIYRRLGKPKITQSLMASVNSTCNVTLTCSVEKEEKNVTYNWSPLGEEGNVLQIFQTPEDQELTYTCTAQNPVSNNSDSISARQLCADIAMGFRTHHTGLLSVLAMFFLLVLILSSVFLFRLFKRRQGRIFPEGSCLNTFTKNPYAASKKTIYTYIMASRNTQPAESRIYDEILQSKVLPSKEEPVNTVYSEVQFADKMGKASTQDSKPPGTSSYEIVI

B1: anti-CD84 antibody from the B4 hybridoma (antibody)
heavy: EVKLVESGAELARPGASVKLSCKASGYTFTSYWMQWVKQRPGQGLEWIGAIYPGDGDTRYTQKFKGKATLTADKSSSTAYMQLSSLASEDSAVYYCARLLRTYWYFDVWGAGTTVTVSSFEAKTTAPSVYPLAPVCGDTTGSSVTLGCLVKGYFPEPVTLTWNSGSLSSGVHTFPAVLQSDLYTLSSSVTVTSSTWPSQSITCNVAHPASSTKVDKKIEPRGPTIKPCPPCKCPAPNLLGGPSVFIFPPKIKDVLMISLSPIVTCVVVDVSEDDPDVQISWFVNNVEVHTAQTQTHREDYNSTLRVVSALPIQHQDWMSGKEFKCKVNNKDLPAPIERTISKPKGSVRAPQVYVLPPPEEEMTKKQVTLTCMVTDFMPEDIYVEWTNNGKTELNYKNTEPVLDSDGSYFMYSKLRVEKKNWVERNSYSCSVVHEGLHNHHTTKSFSRTPGK
light: DIVLTQSHKFMSTSVGDRVSITCKASQDVGTAVAWYQQKPGQSPKLLIYWASTRHTGVPDRFTGSGSGTDFTLTISNVQSEDLADYFCQQYSSYPYTFGGGTKLELKRRTRADAAPTVSIFPPSSEQLTSGGASVVCFLNNFYPKDINVKWKIDGSERQNGVLNSWTDQDSKDSTYSMSSTLTLTKDEYERHNSYTCEATHKTSTSPIVKSFNRNEC
Consider B1, for which the % apoptosis, Ramos cells (Magic Red, FACS) worked out at 39 % apoptosis; the % apoptosis, purified CLL cells (Magic Red, FACS) stood at 75 % apoptosis; the annexin positive total population of CLL cells (Annexin 7AAD staining) is 55.8%.

B2: anti-CD84 antibody from the B1 hybridoma (antibody)
heavy: EVKLVESGGGLVQPGGSRKLSCAASGFTFSSFGMHWVRQAPEKGLEWVAYISSGSSTIYYADTVKGRFTISRDNPKNTLFLQMTSLRSEDTAMYYCARWGWTGTGLDYWGQGTTLTVSSFEAKTTPPSVYPLAPGSAAQTNSMVTLGCLVKGYFPEPVTVTWNSGSLSSGVHTFPAVLQSDLYTLSSSVTVPSSTWPSETVTCNVAHPASSTKVDKKIVPRDCGCKPCICTVPEVSSVFIFPPKPKDVLTITLTPKVTCVVVDISKDDPEVQFSWFVDDVEVHTAQTQPREEQFNSTFRSVSELPIMHQDWLNGKEFKCRVNSAAFPAPIEKTISKTKGRPKAPQVYTIPPPKEQMAKDKVSLTCMITDFFPEDITVEWQWNGQPAENYKNTQPIMDTDGSYFVYSKLNVQKSNWEAGNTFTCSVLHEGLHNHHTEKSLSHSPGK
light: DIVLTQSPALMAASPGEKVTITCSVSSSISSSNLHWYQQKSETSPKPWIYGTSNLASGVPVRFSGSGSGTSYSLTISSMEAEDAATYYCQQWSSYPFTFGSGTKLEIKRRTRADAAPTVSIFPPSSEQLTSGGASVVCFLNNFYPKDINVKWKIDGSERQNGVLNSWTDQDSKDSTYSMSSTLTLTKDEYERHNSYTCEATHKTSTSPIVKSFNRNEC
In turn, B2 had a % apoptosis, Ramos cells (Magic Red, FACS) of 45 % apoptosis and a % apoptosis, purified CLL cells (Magic Red, FACS) of 73 % apoptosis.

The record behind these values is US20180327493A1.
